Laboratory results taken from patent US20030044809A1, “Nucleic acid binding of multi-zinc finger transcription factors” (published 2003).

How the values were obtained:
GST-SIP1NZF = target: T1, GST-SIP1NZF (mouse, UniProt Q9R0G7 Q9R0G7:90-383); assay: EMSA; strong; details: tags: GST; label: 32P
T1 sequence: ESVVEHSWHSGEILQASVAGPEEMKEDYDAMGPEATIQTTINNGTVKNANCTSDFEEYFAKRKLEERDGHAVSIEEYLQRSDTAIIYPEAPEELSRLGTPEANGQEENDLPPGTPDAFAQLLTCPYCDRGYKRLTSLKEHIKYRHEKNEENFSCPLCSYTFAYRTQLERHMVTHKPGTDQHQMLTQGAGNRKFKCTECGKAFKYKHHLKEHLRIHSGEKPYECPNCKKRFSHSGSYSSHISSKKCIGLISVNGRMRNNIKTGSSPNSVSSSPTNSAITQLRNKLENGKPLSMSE
Method: (§1) The DNA binding assay (20 μl) was performed at 25° C., with 1 μg of COS1 total cell protein, […] of poly dI-dC, 10 pg of ³²P-labeled double-stranded oligonucleotide (approx. 10⁴ Cerenkov counts) in the δEF1 binding buffer described previously (30). For supershift experiments, the extracts were incubated with anti-Myc (Santa Cruz) or anti-FLAG (Kodak) antibodies. For competition, an excess of unlabeled double-stranded oligonucleotides was added together with the labeled probe. The binding reaction was loaded onto a 4% polyacrylamide gel (acrylamide/bis-acrylamide, 19:1) prepared in 0.5XTBE buffer. Following electrophoresis, gels were dried, and exposed to X-Ray film. All experiments were repeated at least three times.
(§2) The integrity of both SIP1 zinc finger clusters is necessary for the binding of SIP1FS to DNA: Mutations within NZF3, NZF4, CZF2, CZF3 abolish the DNA-binding activity of either the SIP1NZF or SIP1CZF zinc finger clusters. The wild type and mutated zinc finger clusters were fused to GST and the fusion proteins were produced in E. Coli. After purification, an equal amount of each fusion proteins (0.1 ng) was incubated with 10 pg of labeled Xbra-E probe. Mutations within NZF3, NZF4, CZF2 or CZF3 affect the binding of SIP1FS to the Xbra-WT probe. […]

GST-SIP1CZF = target: T2, GST-SIP1CZF (mouse, UniProt Q9R0G7 Q9R0G7:957-1156); assay: EMSA; strong; details: tags: GST; label: 32P
T2 sequence: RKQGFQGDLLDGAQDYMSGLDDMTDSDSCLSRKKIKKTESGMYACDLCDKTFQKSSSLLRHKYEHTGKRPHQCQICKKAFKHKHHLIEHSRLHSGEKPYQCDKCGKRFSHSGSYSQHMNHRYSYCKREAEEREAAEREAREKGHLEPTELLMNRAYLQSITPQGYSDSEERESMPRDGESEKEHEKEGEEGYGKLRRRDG
Method: as §1, §2

B1: Xbra-E (dsDNA)
DNA 1: TAAAGTGACCAGGTGTCAGTTCT
DNA 2: AGAACTGACACCTGGTCACTTTA
binding result (GST-SIP1NZF): binds | binding result (GST-SIP1CZF): binds
